Measured values published in paper doi:10.1101/2022.11.04.515170, “Insights into cargo sorting by SNX32 in neuronal and non-neuronal cells: physiological implications in neurite outgrowth” (bioRxiv, 2022).
Numbering of substitutions follows the chain as printed. In names and notes the source's numbering stands.

Legend:
Conditions in all cases: partners not purified
GFP-SNX4 S448R = target: T1, GFP-SNX4 S448R (UniProt O95219 1-450, S448R); assay: co-IP; GST-GFP nanobody (GBP) on glutathione Sepharose beads, 2 h at 4°C with HeLa cell lysate overexpressing GFP-SNX4 (WT or mutant) and HA-SNX32 (WT or mutant); immunoblot anti-GFP and anti-HA
T1 construct: Sorting nexin 4 (SNX4) with S448R in the BAR domain, by site directed mutagenesis of GFP-tagged SNX4; also called pEGFP SNX4S448R; source: HeLa, transfected, overexpressed, in lysate
T1 sequence (looked up): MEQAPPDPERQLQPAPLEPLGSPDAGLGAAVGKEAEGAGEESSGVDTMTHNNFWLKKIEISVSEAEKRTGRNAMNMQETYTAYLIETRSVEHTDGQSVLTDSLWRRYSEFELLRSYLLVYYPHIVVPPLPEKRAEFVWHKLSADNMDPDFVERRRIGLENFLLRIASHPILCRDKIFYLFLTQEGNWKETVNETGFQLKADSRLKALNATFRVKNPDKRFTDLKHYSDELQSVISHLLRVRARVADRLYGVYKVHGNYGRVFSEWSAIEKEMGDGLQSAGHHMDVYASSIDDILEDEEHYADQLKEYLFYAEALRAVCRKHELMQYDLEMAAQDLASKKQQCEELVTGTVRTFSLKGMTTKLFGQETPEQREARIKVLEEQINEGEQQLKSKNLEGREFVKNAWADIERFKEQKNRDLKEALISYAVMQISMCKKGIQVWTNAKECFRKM

GFP-SNX4 Y258E = target: T2, GFP-SNX4 Y258E (UniProt O95219 1-450, Y258E); assay: as above
T2 construct: Sorting nexin 4 (SNX4) with Y258E in the BAR domain, by site directed mutagenesis of GFP-tagged SNX4; also called pEGFP SNX4Y258E; source: HeLa, transfected, overexpressed, in lysate
T2 sequence (looked up): T1 sequence (looked up) with Y258E, R448S

GFP-SNX1 = target: T3, GFP-SNX1 (UniProt Q13596 1-522); assay: co-IP; GST-GFP nanobody (GBP) on glutathione Sepharose beads, 2 h at 4°C with HEK293T cell lysate overexpressing GFP-tagged and HA-tagged SNX proteins; washed with PBS; immunoblot anti-GFP and anti-HA
T3 construct: Sorting nexin 1 (SNX1); pEGFP C1 SNX1, gift from Prof Peter J Cullen; also called GFP-SNX1 WT; source: HEK293T or HeLa, transfected, overexpressed, in lysate
T3 sequence (Q13596 whole entry): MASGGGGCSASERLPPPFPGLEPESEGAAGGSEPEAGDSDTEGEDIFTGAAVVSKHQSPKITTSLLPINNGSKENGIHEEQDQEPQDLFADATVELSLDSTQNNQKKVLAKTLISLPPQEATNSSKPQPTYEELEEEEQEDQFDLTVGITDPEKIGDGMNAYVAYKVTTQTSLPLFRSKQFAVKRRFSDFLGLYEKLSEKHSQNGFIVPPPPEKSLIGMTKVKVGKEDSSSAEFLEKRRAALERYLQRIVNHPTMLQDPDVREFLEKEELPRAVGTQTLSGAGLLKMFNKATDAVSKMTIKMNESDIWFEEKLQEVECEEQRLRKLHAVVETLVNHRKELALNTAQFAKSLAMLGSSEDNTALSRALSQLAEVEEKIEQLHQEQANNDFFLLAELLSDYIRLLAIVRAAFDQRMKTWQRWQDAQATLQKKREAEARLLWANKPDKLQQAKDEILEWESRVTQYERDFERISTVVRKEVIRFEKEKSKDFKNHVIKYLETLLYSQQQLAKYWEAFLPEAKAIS

GFP-SNX8 = target: T4, GFP-SNX8 (UniProt Q9Y5X2 1-465); assay: as above
T4 construct: Sorting nexin 8 (SNX8); source: HEK293T, transfected, overexpressed, in lysate
T4 sequence (looked up): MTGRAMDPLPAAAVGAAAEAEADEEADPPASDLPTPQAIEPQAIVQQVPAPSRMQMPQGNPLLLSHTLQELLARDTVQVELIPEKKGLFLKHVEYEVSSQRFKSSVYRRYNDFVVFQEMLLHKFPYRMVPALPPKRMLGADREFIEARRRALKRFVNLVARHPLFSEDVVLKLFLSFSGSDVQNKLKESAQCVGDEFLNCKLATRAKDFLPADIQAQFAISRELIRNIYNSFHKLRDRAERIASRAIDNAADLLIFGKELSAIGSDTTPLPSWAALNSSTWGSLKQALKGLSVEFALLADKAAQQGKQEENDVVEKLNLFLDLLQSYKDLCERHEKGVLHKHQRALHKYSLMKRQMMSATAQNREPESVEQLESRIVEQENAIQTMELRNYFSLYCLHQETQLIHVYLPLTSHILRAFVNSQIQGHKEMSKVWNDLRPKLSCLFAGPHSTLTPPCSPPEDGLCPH

GFP-SNX32 WT = target: T5, GFP-SNX32 WT (UniProt Q86XE0 1-403); assay: as above
T5 construct: Sorting nexin 32 (SNX32), full length; pEGFP C1 SNX32 FL, gift from Prof Peter J Cullen; also called GFP-SNX32 wild type; GFP-tagged SNX32; source: HEK293T or HeLa, transiently transfected, in lysate; SH-SY5Y, lentivirally transduced, stably expressing, in lysate
T5 sequence (looked up): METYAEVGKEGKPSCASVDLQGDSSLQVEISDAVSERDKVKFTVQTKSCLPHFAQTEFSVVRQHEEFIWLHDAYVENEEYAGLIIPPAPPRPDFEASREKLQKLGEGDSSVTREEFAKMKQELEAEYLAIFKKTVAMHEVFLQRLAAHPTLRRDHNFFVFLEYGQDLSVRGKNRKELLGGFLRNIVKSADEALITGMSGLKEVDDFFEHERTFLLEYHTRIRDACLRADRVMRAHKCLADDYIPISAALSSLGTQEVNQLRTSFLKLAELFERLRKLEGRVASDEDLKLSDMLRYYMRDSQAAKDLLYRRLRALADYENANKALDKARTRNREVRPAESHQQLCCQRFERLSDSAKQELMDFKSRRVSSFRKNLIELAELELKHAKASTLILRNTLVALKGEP

GFP-SNX4 = target: T6, GFP-SNX4 (UniProt O95219 1-450); assay: co-IP; GST-GFP nanobody (GBP) on glutathione Sepharose beads, 2 h at 4°C with HeLa cell lysate overexpressing GFP-SNX4 (WT or mutant) and HA-SNX32 (WT or mutant); immunoblot anti-GFP and anti-HA
T6 construct: Sorting nexin 4 (SNX4); pEGFP C1 SNX4, gift from Prof Peter J Cullen; also called GFP-SNX4 WT; source: HEK293T or HeLa, transfected, overexpressed, in lysate
T6 sequence (looked up): T1 sequence (looked up) with R448S

B1: HA-SNX32 FL (natural protein, UniProt Q86XE0 1-403, looked up)
chain: T5 sequence (looked up)
notes: Sorting nexin 32 (SNX32), full length (FL); pcDNA3 HA N(I) SNX32 FL, subcloned from pEGFP C1 SNX32 FL; also called HA-SNX32 WT; Sorting nexin 32; source: HEK293T or HeLa, transfected, overexpressed, in lysate
- ratio of HA to GFP band intensity (GFP-SNX4 S448R): 0.23
- ratio of HA to GFP band intensity (GFP-SNX4 Y258E): 0.33
- ratio of HA to GFP band intensity (GFP-SNX1): 0.98
- ratio of HA to GFP band intensity (GFP-SNX8): 0.62
- ratio of HA to GFP band intensity (GFP-SNX32 WT): 0.85

B2: HA-SNX32 Q259R (natural protein, UniProt Q86XE0 1-403, looked up)
chain: T5 sequence (looked up) with Q259R
notes: SNX32 with Q259R, by site directed mutagenesis of HA-tagged SNX32; source: HeLa, transfected, overexpressed, in lysate
- ratio of HA to GFP band intensity (GFP-SNX4): 0.75

B3: HA-SNX32 R366E (natural protein, UniProt Q86XE0 1-403, looked up)
chain: T5 sequence (looked up) with R366E
notes: SNX32 with R366E, by site directed mutagenesis of HA-tagged SNX32; source: HeLa, transfected, overexpressed, in lysate
- ratio of HA to GFP band intensity (GFP-SNX4): 0.49

B4: HA-SNX32 E256R (natural protein, UniProt Q86XE0 1-403, looked up)
chain: T5 sequence (looked up) with E256R
notes: SNX32 with E256R, by site directed mutagenesis of HA-tagged SNX32; source: HeLa, transfected, overexpressed, in lysate
- ratio of HA to GFP band intensity (GFP-SNX4): 0.66

B5: HA-SNX32 R220E (natural protein, UniProt Q86XE0 1-403, looked up)
chain: T5 sequence (looked up) with R220E
notes: SNX32 with R220E, by site directed mutagenesis of HA-tagged SNX32; source: HeLa, transfected, overexpressed, in lysate
- ratio of HA to GFP band intensity (GFP-SNX4): 1.02
